# Laboratory results as given in the supplement of paper PMC9170038.
# System: MS2 coat protein
# Experiment: apparent KD of MS2 coat protein; higher = weaker reporter binding
# Settings: Eterna round: R107
# In short: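 Each design's apparent KD comes from the median of binding-curve fits to its normalised clusters. Those clusters carried RNA switches transcribed on-chip from Illumina sequencing clusters. SNAP-549-labelled MS2 coat protein was titrated onto them in twofold steps (0.7 or 1.5 nM to 3 µM; per step 0.8–1.5 h down to 10–20 min). Conditions were 100 mM Tris-HCl pH 7.5, 80 mM KCl, 4 mM MgCl2, without or with constant ligand.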
# [1] = input ligand: theophylline 20 uM
# [2] = input ligand: tryptophan 2.4 mM
# [3] = input ligand: theophylline 2 mM
Sequence,apparent KD of MS2 coat protein (input ligand: arginine 13.2 mM) [nM],apparent KD of MS2 coat protein [1] [nM],apparent KD of MS2 coat protein [2] [nM],apparent KD of MS2 coat protein (input ligand: none) [nM],apparent KD of MS2 coat protein [3] [nM]
AGCCUCAUACAUGAGGAUCACCCAUGUGAUACCAGUCAGGAAACUGACCCUUGGCAGCGCAUGAGGAUCACCCAUGCGCGAGGCA [Omei Theo A Exc A v1],40.1,123,36.8,–,–
ACAUGAGGAUCACCCAUGUUCCUCAUUGAUACCAGUGAAAGAAGACGCCCUUGGCAGCGAGAAGAAGAAGAAGAAGUUUUUUUUU [6.B],209,770,917,–,–
AGACGAGAAGAGGUUUACCCAUGUACAGAAGGAGCGUCGUUGACGACAGGUAGGUCGCUGAAAACAUGAGGAUCACCCAUGUUGA [#05 Exclusion - Arginine A],62.9,35.3,31.7,31.1,39.7
UGGCGAGAAGGAAGGAGCGUCAGCUGAGUCACAUGAGGAUCACCCAUGUAGCACAUAGUGUGACAGGUAGGUCGCCUUCUGCCCU [SS-ArgB17],13.5,15.4,9.41,10.3,10.8
UAUCCACAUGAGGAUCACCCAUGUAGGGAAGGAGCGGUGAUUUCACCAGGUAGGUCGCCUUGCUGAGGGUAGCCGGUGGAAUCGU [Exclusion - Arginine A (Freestyle 32)],24.4,22.4,10.9,19.7,9.15
GUGCUGGUAUCGGCCGCCACUGUAACAUGACAUCCCAGGGCCGACAUGAGGAUCACCCAUGUUAACAGGACCGGGAUAUCAACGA [Riorquen],13.2,28.9,–,–,19.5
AUGCGCUAUAUGGAUACCAGUAUGAUAAUUGACAUGAGGAUCACCCAUGUGAGCUCUACCUACCCUUGGCAGCCAACCCUAUUUG [theeternabot_sameState_MS2_Theo_B_26],21.7,29.9,23,–,–
GAUGAACUAUUUGAUACCAGACUACAUGAGGAUCACCCAUGUGUGUUUAUACUUCUGUCAGUCCCUUGGCAGCAAAUAGUUUAUC [XTheo B #4],47.3,95.2,40.4,–,–
UCGCCCAGGUAGGAUUGAUGGGAUAUGGAAGGAGCGCUGAUGCCAGCAGGUAGGUCGCCAACGGACAUGAGGAUCACCCAUGUAC [Same State - Arginine A (Freestyle 5)],16.5,34.6,25.2,18.7,28.3
GGGCCCGGGCGCGAGCCCGGGCCCAUUGAUACCAGUGAAUAUAUACGCCCUUGGCAGCGAAUCCUAACAUGAGGAUCACCCAUGU [5.B],34.8,62.3,38.2,50.2,49.4
AGUCUUAUAGGAAGGAGCGCAUACUUCACAUGAGGAUCACCCAUGUCAAGGAGUGAGUCAAUGCAGGUAGGUCGCCUAACUAAGA [Same State - Arginine B (Freestyle 10)],38.6,112,88.3,108,139
AAUAAUAUCCUCAUGUGAGUCGUACCAUAACGAGGACCGGUACGGCCGCCACUCGAACAUGAGGAUCACCCAUGUAGGUAUGAUA [M'-T'-T-MS2-T'' - Design 7],50.6,120,–,–,345
GCUAGGUCAUCGGCCGCCACUAACGAUGGCUCCGACAUGAGGAUCACCCAUGUGCCACAUGCGCAUAGGACCGGGAUGACCUAGC [SSTB NP+V+V2 #2],16.8,22.7,–,–,19.8
GGUGGGACUUGUGAUACCAGCCUAAUUCUAAACGAAUUGCACAUGAGGAUCACCCAUGUCGGCCCUUGGCAGCAUGAGUAUUUAU [Anartiison],73.3,104,117,–,–
GGGUACAUCGCGGCCGCCACUUAUGUAAAUACAUGAGGAUCACCCAUGUCGAUGGAGACAUCGGUAAGGACCGGGUGAUGUACCG,168,174,–,155,183
GACCCAUGAGUUGCAAAAGCUCAUGGGUCGCGAGGACCGGUACGGCCGCCACUCGGCUGUACAUGAGGAUCACCCAUGUCAGGGU [#1 Same State - Tryptophan A Attempt #26 (HarryS)],54.4,615,–,–,845
CACGAAAGAUCGGCCGCCACUAUUUGAUGUGUUCUUUCACAUGAGGAUCACCCAUGUUCUUAUUAUAGGACCGGGAUUGAGCGUG [ETB #3],73.9,141,–,–,190
GACUAACAUGAGGAUCACCCAUGUGAAGAUACCAGUAAUUUCACCUACCCUUGGCAGCUUUUUUUGAACGGCCUGAAUGCCUUGU [theeternabot_sameState_MS2_Theo_A_14],12.2,17.5,11.9,–,–
GAUCGAAAUAACGCAUAGGAAAACUAUGCGCGAGGACCGGUACGGCCGCCACUCGUCCUCACAUGAGGAUCACCCAUGUACGAUC [#SwitchBubble #CuTurnoff],23.1,29.1,–,–,27.6
GGACUAACCAGAAGGAGCGACACAAAGCAGAAACUGCAUCCUCCGCACGAGGAUCACCCGUGUCAGGUAGGUCGCUGGUUAGUCG [ArgBX 28],54,57,41.7,50.2,50.4
UGUAUGUGAUCUGAUACCAGCUUAAUAGCUUGAGGAUCACCCAAGUGGAGCGGAAACGCUAGCCCUUGGCAGCAGAUCGCAUACU [Denovo 10 #StaticStem #AlternativeMS2],104,104,198,198,11.9
UUUUAGCAUCGAAGGAGCGCUGGUAGGUGACACAUGAGGAUCACCCAUGUGCUCCUUACCGAGCAGGUAGGUCGCGAUGCUAUUU [SSAB NP+V+V2 #9],20,35.4,25.1,23.7,29.4
UGUACCAUGUCGGCCGCCACUCAUGAUAAACAUGAGGAUCACCCAUGUGGCGUCAAAGACGCUAUGAGGACCGGGACAUGGUACU [TryBS Zipper 3 #StaticStem #Zipper],15.3,19.9,–,–,15.7
UGAUGGUGCUGAAGGAGCGUGUAAGAACAAGAACAUGAGGAUCACCCAUGUAUUAAUUUAACACAGGUAGGUCGCGGUGUUAUUG [11.L],30.5,42.5,19.7,25.4,45.8
GAGUAGAGGACGGCCGCCACUAAACAUGAGGAUCACCCAUGUCGUGAUCCGUUACCUAGAGUAGAUAGGACCGGGUCAUAUAGUC [Exclusion Tryptophan B GF 16],20.8,41.5,–,–,24.5
UGGUCCGGCGGAAGGAGCGACAUGAGGAUCACCCAUGUCUCCCGUUAUGGGAGUUCUUUAGGUCAGGUAGGUCGCCGGCGGGUCA [#1 Exclusion - Arginine B Attempt #11 (Inspired by Omei)],196,80.6,62.9,51.6,221
AGUCUUAUAGGAAGGAGCGCAUACUUCACAUGAGGAUCACCCAUGUCAAGACGUGAGUCAAUGCAGGUAGGUCGCCUAACUAAGA [Same State - Arginine B (Freestyle 12)],18,20.4,14.6,18.8,17.7
